Reference: article PMC10590986
“And” between values parts separate entries of the source, which are not always exact repeats. Identical values can stand only once.

Target: poliovirus 3AsolBC protein (poliovirus)
Assay: SEC

poliovirus 3AsolBC protein (natural protein)
Kd: 20 to 60 µM | percent of the total absorbance in the leading-edge (dimer) peak: 10% and 30%
